Results reported in patent US20200230184A1.

Target: human ApoB100 (human) (UniProt P04114)
Test: cell-based or functional assay

Sequence of UniProt P04114 (P04114 28-4563 limits assumed): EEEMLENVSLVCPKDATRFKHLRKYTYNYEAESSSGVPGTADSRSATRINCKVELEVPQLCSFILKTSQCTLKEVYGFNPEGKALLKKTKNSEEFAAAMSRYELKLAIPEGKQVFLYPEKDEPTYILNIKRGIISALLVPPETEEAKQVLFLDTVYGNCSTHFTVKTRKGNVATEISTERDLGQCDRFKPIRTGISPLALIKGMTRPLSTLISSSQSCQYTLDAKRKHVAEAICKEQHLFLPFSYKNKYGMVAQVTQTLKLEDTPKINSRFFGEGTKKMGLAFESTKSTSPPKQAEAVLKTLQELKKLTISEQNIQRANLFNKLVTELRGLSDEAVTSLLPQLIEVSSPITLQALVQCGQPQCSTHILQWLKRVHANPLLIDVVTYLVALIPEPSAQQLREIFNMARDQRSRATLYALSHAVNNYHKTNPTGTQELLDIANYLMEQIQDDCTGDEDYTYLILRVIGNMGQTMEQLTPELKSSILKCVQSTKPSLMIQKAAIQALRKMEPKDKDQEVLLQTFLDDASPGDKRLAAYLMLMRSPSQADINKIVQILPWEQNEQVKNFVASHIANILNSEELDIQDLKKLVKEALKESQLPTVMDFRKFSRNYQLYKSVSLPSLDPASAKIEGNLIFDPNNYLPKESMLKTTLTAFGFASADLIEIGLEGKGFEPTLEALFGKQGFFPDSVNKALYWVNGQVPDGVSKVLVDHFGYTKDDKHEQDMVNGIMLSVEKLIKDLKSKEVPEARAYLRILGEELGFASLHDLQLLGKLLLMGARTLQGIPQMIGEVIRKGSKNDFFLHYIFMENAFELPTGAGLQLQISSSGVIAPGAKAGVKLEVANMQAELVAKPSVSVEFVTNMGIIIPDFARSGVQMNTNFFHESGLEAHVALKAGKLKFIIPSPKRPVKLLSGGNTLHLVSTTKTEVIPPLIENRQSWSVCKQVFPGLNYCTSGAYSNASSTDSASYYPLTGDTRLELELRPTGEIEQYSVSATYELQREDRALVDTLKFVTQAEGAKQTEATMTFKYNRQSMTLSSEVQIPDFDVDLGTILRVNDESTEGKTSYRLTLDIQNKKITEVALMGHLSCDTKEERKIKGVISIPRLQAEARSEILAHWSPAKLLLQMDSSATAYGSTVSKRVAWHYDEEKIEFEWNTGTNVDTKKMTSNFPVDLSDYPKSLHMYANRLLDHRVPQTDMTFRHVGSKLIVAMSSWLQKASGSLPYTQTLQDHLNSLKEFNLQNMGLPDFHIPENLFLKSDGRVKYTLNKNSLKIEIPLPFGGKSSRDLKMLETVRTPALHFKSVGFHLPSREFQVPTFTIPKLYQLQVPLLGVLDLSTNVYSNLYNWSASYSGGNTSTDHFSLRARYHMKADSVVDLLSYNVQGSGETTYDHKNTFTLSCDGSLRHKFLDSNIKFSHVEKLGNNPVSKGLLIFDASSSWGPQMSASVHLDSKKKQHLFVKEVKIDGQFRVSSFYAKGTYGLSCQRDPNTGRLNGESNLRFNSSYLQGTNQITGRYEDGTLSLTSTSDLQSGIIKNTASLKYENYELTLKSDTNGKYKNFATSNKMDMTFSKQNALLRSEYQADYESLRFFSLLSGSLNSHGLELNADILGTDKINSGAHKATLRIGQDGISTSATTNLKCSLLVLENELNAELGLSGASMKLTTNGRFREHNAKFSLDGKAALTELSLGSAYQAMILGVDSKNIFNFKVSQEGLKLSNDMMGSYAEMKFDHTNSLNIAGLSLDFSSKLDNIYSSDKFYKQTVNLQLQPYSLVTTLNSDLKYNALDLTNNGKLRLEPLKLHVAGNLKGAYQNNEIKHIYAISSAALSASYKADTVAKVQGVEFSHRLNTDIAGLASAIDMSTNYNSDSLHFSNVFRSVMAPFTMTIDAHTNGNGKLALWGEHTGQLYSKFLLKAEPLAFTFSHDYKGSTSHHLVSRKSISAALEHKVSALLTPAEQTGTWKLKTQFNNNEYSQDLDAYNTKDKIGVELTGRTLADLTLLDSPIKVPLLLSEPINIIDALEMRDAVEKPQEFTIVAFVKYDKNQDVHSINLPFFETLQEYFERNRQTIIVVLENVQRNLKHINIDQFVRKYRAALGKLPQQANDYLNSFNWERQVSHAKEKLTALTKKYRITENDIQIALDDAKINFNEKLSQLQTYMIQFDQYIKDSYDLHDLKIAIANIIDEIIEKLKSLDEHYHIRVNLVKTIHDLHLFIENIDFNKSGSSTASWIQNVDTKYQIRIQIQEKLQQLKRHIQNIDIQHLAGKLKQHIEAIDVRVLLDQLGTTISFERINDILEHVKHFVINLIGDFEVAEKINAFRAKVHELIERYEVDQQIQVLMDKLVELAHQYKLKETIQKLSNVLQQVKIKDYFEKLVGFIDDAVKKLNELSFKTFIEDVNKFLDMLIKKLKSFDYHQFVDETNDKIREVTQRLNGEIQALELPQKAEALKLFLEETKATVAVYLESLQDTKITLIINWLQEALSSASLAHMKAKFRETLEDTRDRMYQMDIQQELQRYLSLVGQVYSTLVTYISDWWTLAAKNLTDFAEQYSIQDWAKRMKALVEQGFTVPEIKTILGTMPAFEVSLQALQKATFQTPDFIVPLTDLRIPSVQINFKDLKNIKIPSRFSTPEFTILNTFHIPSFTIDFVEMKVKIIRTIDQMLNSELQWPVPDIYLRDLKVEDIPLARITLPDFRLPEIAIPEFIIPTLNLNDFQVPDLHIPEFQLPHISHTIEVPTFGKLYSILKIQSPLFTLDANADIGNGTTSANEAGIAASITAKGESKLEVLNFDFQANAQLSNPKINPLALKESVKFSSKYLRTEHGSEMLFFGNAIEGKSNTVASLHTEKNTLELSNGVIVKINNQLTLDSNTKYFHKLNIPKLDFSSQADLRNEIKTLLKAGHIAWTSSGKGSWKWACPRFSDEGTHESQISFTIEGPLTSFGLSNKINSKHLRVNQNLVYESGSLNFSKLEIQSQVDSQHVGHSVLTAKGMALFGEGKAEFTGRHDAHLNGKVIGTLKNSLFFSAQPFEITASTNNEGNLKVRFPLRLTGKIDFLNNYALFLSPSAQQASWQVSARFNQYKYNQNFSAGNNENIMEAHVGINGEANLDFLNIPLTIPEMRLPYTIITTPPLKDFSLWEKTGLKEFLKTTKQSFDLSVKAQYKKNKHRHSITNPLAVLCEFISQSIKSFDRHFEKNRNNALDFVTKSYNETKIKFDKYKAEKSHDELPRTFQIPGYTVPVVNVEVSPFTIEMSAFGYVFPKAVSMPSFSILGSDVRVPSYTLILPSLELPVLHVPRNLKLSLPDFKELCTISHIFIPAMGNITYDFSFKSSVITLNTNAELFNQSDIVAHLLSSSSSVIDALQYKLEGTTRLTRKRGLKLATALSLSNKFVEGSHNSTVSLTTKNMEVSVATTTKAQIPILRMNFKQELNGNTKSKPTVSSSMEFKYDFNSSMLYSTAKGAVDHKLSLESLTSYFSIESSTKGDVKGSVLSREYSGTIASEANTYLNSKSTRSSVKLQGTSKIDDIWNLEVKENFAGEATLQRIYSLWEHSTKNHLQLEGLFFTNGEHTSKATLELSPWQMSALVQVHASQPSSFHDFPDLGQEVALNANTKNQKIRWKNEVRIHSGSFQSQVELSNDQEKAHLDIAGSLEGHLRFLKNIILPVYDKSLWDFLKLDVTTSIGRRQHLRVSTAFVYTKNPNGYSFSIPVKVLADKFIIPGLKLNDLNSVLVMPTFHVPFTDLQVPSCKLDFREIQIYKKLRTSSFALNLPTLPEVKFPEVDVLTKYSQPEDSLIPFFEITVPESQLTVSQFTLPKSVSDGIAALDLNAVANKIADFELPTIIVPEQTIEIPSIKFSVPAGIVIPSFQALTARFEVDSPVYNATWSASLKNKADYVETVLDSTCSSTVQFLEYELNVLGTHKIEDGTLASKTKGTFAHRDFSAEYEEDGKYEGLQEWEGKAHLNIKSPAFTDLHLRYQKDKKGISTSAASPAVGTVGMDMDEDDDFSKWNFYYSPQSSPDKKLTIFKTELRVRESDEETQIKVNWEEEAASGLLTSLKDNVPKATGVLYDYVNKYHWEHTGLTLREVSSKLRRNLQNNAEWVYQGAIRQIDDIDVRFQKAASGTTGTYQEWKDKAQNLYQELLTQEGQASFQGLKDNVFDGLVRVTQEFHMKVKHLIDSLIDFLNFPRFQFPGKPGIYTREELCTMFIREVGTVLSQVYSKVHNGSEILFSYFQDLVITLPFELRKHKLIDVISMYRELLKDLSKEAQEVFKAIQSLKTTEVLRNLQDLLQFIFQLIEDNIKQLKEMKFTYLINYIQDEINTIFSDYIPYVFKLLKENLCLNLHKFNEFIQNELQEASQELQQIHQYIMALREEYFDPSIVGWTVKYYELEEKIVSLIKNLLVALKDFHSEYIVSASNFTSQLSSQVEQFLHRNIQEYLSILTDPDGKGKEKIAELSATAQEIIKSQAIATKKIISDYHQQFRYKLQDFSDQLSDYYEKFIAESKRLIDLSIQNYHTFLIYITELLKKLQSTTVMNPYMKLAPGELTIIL

## human low density lipoprotein receptor (hLDLR) (from UniProt P01130 22-860)
  reduction of serum cholesterol in LAHB mice after AAV8.TBG.hLDLR (% reduction of serum cholesterol): 30
